Experiment [1] deals with APJ (orphan G protein-coupled receptor protein). In words: radioligand competition, compound of Ref. Ex. 2 as labelled ligand, CHO-A10 membrane fraction.
For experiment [2] the target is unchanged. The experiment in a line: radioligand competition, 125I-labelled compound of Ref. Ex. 1 (100 pM), CHO-A10 membrane fraction.
The target is the same in experiment [3]. The experiment in a line: cell-based or functional assay.

IC50 and EC50, inhibition of forskolin-stimulated cAMP production (CHO-A10 clone 6 cells) data for 13 substances are collected here from patent US20040116336A1, “Peptide derivatives” (priority 2002, published 2004).

pIC50: −log10 of the molar value.

Sequence of APJ (orphan G protein-coupled receptor protein) (P35414 whole entry): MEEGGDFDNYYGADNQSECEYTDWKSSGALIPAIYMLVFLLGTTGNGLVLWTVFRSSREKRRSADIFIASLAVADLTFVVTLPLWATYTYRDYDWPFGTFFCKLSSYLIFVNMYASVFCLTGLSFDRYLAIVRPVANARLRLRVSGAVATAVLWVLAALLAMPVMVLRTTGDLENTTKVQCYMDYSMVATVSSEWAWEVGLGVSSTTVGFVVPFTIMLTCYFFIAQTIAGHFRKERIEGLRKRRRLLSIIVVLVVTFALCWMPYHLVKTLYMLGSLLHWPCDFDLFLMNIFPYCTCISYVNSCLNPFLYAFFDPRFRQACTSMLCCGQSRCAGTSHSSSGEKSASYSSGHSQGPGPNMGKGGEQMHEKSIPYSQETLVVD

Consider “Arg-Arg-Gln-Arg-Pro-Arg-Leu-Ser-Ala-Arg-Gly-Pro-Met-Pro-Phe(Cl) (peptide)”, for which the results for the pIC50 in experiment [1] and in experiment [2] were 10.00 and 9.70, respectively.

“Arg-Arg-Gln-Arg-Pro-Arg-Leu-Ser-Ala-Arg-Gly-Pro-Met-Pro-Phe(Cl)-NH2 (peptide)” yielded an EC50, inhibition of forskolin-stimulated cAMP production (CHO-A10 clone 6 cells) in experiment [3] of 0.32 nM. For the same substance, the pIC50 in experiment [1] was 9.74; in experiment [2], 9.49.

The substance “Arg-Pro-Arg-Leu-Phe-His-Lys-Gly-Pro-Met-Pro-Phe(Cl) (peptide)” showed an EC50, inhibition of forskolin-stimulated cAMP production (CHO-A10 clone 6 cells) in experiment [3] of 0.38 nM. Besides, the pIC50 is 10.18 in experiment [1] and 8.10 in experiment [2].

For the substance “Arg-Pro-Arg-Leu-Ser-Ala-Arg-Gly-Gly-Met-Pro-Phe(Cl) (peptide)”, the EC50, inhibition of forskolin-stimulated cAMP production (CHO-A10 clone 6 cells) in experiment [3] came to 0.19 nM. The pIC50 in experiment [1] was 9.54.

With “Arg-Pro-Arg-Leu-Ser-Ala-Arg-Gly-N-MeAla-Met-Pro-Phe(Cl) (peptide)”, the EC50, inhibition of forskolin-stimulated cAMP production (CHO-A10 clone 6 cells) in experiment [3] turned out to be 0.27 nM. Further, the pIC50 in experiment [1] is 10.05; in experiment [2], 9.57.

For the substance “Arg-Pro-Arg-Leu-Ser-Ala-Arg-Gly-Pro-Ala-Pro-Phe(Cl) (peptide)”, the EC50, inhibition of forskolin-stimulated cAMP production (CHO-A10 clone 6 cells) in experiment [3] amounted to 0.37 nM. The figures for the pIC50 in experiment [1] and in experiment [2] were 10.19 and 9.43, respectively.

As to “Arg-Pro-Arg-Leu-Ser-Ala-Arg-Gly-Pro-Met-Pro-Phe(Cl) (peptide)”, in experiment [3], the EC50, inhibition of forskolin-stimulated cAMP production (CHO-A10 clone 6 cells) was 0.32 nM. Besides, the results for the negative logarithm of the IC50 (pIC50) in experiment [1] and in experiment [2] were 10.44 and 9.04, respectively.

Consider “Arg-Pro-Arg-Leu-Ser-Dap(Ac)-Arg-Gly-Pro-Cha-Pro-Phe(Cl) (peptide)”, for which the EC50, inhibition of forskolin-stimulated cAMP production (CHO-A10 clone 6 cells) in experiment [3] was 0.69 nM. Further, the values for the pIC50 in experiment [1] and in experiment [2] were 9.96 and 9.16, respectively.

Substance “Arg-Pro-Arg-Leu-Ser-Dap-Arg-Gly-Pro-Cha-Pro-Phe(Cl) (peptide)” had an EC50, inhibition of forskolin-stimulated cAMP production (CHO-A10 clone 6 cells) in experiment [3] of 0.52 nM. For the same substance, the pIC50 in experiment [1] was 9.59; in experiment [2], 9.28.

For “Arg-Pro-Arg-Leu-Ser-His-Lys-Gly-Pro-Cha-Pro-Phe(Cl) (peptide)”, the EC50, inhibition of forskolin-stimulated cAMP production (CHO-A10 clone 6 cells) in experiment [3] came to 0.41 nM. This substance also gave a pIC50 in experiment [2] of 8.85.

For the substance “Arg-Pro-Arg-Leu-Ser-His-Lys-Gly-Pro-Met-Phe(Cl) (peptide)”, the EC50, inhibition of forskolin-stimulated cAMP production (CHO-A10 clone 6 cells) in experiment [3] was 0.16 nM. Further, in experiment [1], the negative-log IC50 (pIC50) is 9.77.

Substance “pGlu-Arg-Pro-Arg-Leu-Ser-His-Lys-Gly-Pro-Met-Phe(Cl) (peptide)” had an EC50, inhibition of forskolin-stimulated cAMP production (CHO-A10 clone 6 cells) in experiment [3] of 0.43 nM. Also, the pIC50 in experiment [1] is 9.32.

For “pGlu-Arg-Pro-Arg-Leu-Ser-His-Lys-Gly-Pro-Met-Pro-Nal(2) (peptide)”, in experiment [3], the EC50, inhibition of forskolin-stimulated cAMP production (CHO-A10 clone 6 cells) was determined as 0.4 nM.
